Consider 22 sequences from a protein production outcome set (Wang et al. 2014).

This series can be described thus: label from the status in PepcDB records.

“MKQLPKTRTALLLAFLVIMWGVNWPLSKAALAYSPPLLFAGIRTLIGGLLLVIVALPRIHKLRLKETWPIYLVSALLNITLFYGLQTIGLNYLPAGLFSAIVFFQPVLMGVFSWLWLGESMFVMKVIGLILGFAGVAVISAAGFGGHISVIGVLLALGSAVSWALGTVYMKKTGSRVDSIWMVALQLTIGSVFLLISGFWTESFSAIQWTAPFITSLLFISVFVIALGWLVFFTLVGSGEASKVASYTFLIPLISIVASSIFLHEPLTLSLLAGLLLIVTSICLVNTKSKAQKAAAIGINEKAAQ”: the protein production result was “failed”.

As to “MKQPATPNAAEETKSEQKQKSKKFPTPTELISHYQKRGLEPAEASIKVIEDLQNALVRVVSSSRNASSKDKLVTDARKIDAINGRLAVVDAKLETKPGYVETFALGLASGATLNGISAVWPHVTRGIGQIWSAVRIGTDPSSTS”, the protein production entry is listed as “failed”.

“MKQTAESIRDRFMKLGIDVPVEDIESRLDELIKKFKVPSNEAQRSVTNYFLKKYSIPKNEFYVRQAEPQLTKIVDIVENGQWANLKAKVIQLWENTHESISQVGLLGDETGIIKFTIWKNAELPLLEQGESYLLRSVVVGEYNDRFQVQVNKNSSIEKLSEPIEVGGGDFTPAAREAELRNIADLTGNQWATVRGKVIQLWENSHESIEQAGLIGDETGVIKFTNWASSELPDMEEGRSYLLKNVVVNEWNGKAQVQLNRSSSIEELDEDIEVRTSMSSYFGAMVDIQTGSGLIKRCPECKRALVKGACAEHGKVKGEYDLRIKAVLDSGTSTQDALINRELTEELSGISLDSAIAMAADALDPGVVLDKLKHELVGRYYTITGHKLDRYILVESITPRTSLDRELLDQMLAEPIAQPEVELEHHHHHH”: the protein production result is “not failed”. For “MKQWADDENLPMERYKNYQMIVPAFIIKDILDGKIPETFEDSKNIKMIEASWGEESYTKGHIPTSVHVNTDIIEPPPTWMLDNDDNLTKFALDYGLTKDDTVIVSSSTPMASYRLAVILRYIGVKDVRVLNGGTNSWLSAGYELEFISNPKLEHHHHHH”, the protein production result is recorded as “failed”.

As to “MKQWLAAMETSVLVMGALRLFSGSAEIFAALLMLYVNDAKKALFINGMLAFVGPTVLILTMTIGIASVASEISFLKLFFLALGICCIFIALLK”, the protein production entry is on record as “failed”. Next, “MKRAAAKHLIERYYHQLTEGCGNEACTNEFCASCPTFLRMDNNAAAIKALELYKINAKLCDPHP”: “not failed”. Then “MKRDGHTHTEFCPHGTHDDVEEMILKAIELDFDEYSIVEHAPLSSEFMKNTAGNQEAVTTASMSMSDLPYYFKKMNQMKKKYASDLLIHIGFEVDYLIGYEDFTRDFLNEYGPQTDDGVLSLHFLEGQGGFRSIDFTAEDYNEGIVQFYGGFEQAQLVYLAGVKQSIEADLGAFKPRRIGHISLCQKFQQFFGADGRDFTAEVIAEFEAILALVKKRGYELDFNTAGLFKPLCKETYPPKEIVTLARALEIPFVYGSDSHGVADIGRGYNTYCQKLEHHHHHH”, with “not failed”. Then “MKREAEGGFQNRYLSNCPGSSRLRVWVPIVEASPGRRPYPFRCQPCNFRLGGRAVGGLAAAQPGGRPRWRRAARRAARAPAPPWLPLPSSPRSNPLTRLLPWFKSIDLNKPIDKRIYKGTQPTCHDFNQFTAATETISLLVGFSAGQVQYLDLIKKDTSKLFNEERLIDKTKVTYLKWLPESESLFLASHASGHLYLYNVSHPCASTPPQYSLLKQGEGFAVYAAKSKAPRNPLAKWAVGEGPLNEFAFSPDGRHLACVSQDGCLRVFHFDSMLLRGLMKSYFGGLLCVCWSPDGRYVVTGGEDDLVTVWSFTEGRVVARGHGHKSWVNAVAFDPYTTRAEETASASGDGDPSGEEEEPEATSSDTGAPVSPLPKAGSVTYRFGSAGQDTQFCLWDLTEDVLSPHPPLARTRTLPGTPGATPPASGGSRAGETGAGPLPRSLSRSNSLPHPAGGGKAGGPSVSMEPGVPFSIGRFATLTLQERRDRGAEKEHKRYHSLGNISRGGSGGNSSNDKLNGPAPRSRLDPAKVLGTALCPRIHEVPLLEPLVCKKIAQERLTVLLFLEDCIITACQEGLVCTWARPGKAFTDEETETQAGEASWPRSPSKSVVEGISSQPGSSPSGTVV”, with “failed”; and “MKRFLSIAMALCIGLTMSLDANAKRFGGGKSVGAAPTHQTRQAAPTAPGAPAAAATAGAAGAAGAAAKAGGASRWLGPLAGIAAGGLLASMFMGGGFQGMQIFDILIMAVIAFVIFRFIAARRRKQQEQYAPAGHAPMQREAFEPQQPAGGSIFGGSPAPAARPVINAPAWFNEERFIEAARSHFQSLQQHWDANEMDKIAEFVTPQMLQFLKQERADLGDGFQSTYIDNLQVQLEGVDDRADKTIATLTFSGVSKTSRFDQGEVFSESWNMERAQGDNQPWLVAGIRQNG”, with “failed”. Turning to “MKRIIILSPFRGLFRSLLYFLLGLIMALISAGYFSQLFSIVGINRDIAIIISITISFLSLFSSPFNLVLTEVKKEAIAIEEDVVFFFGFPIFIPRISRQNMNTLIAVNLGGALIPLGVSLFLMYELQAYIVYFIINIIVVIIVSKLFSRVIRGVGVIMHPIIPSIFSVISSYVLFYKLHILIPLSAYIGSVLGTLIGADLLNLRRIINEARPQVISIGGMGTFDGIFVSGIISVFISELLVII”, the protein production result was “failed”.

Take “MKRKHLSGKSIGIVFGTFAPMHVGHVDLITKEKRANDNVLVIVSGSNTQKDRGTRTGLSLNRRFRNVREIFYDDELIVVDKLDEADMPPYPEGWVPWVNRVKDLITKNTDGPEKITFYVGESEYVIELNRYYPQAQVELIECSVINISATEIRDNPIENWRFITKPFRRHF”: the protein production result is reported as “failed”. Take “MKRLAKTTLMTAMVAMVSFSIYAQTGRDIAQRVKDRPDGDTRRSELTMKLINKRGAVRERKLISYSIDMGKDKKDKKTIMFFLYPGDVKGTGFLTWDYDQIGKDDDKWLYLPAMKKTRRISGASAKKDYFMGSDFTYDDMGSRNVDEDTHKLLGEETFDGHKCWKLESTSKDQRDVFSKKIAWIRQDCLIPVRVEYYDRMNRLHRLLELSDIAQVDGFWMAQKMNMSNVQTGHRTVLEIKKPEFNRPIDESKFTVTSLEKGSL”: the protein production result is “not failed”. Next, “MKRLALALKQRKVASWKLEEVKELTELIKNSNTILIGNLEGFPADKLHEIRKKLRGKATIKVTKNTLFKIAAKNAGIDIEKLEQYLTGPNVFIFTKDNPFITNMFFENYKLRRYAMPGDKAEEEVVIPAGDTGMPAGPILSVFGKLKVQTKVQDGKVHVVKDTVVAKPGDVIPAEALPILQKLGIMPVYVKLKIKVAYHEGLVIPAESLKLDLEGYRSNITEAYRNAFTLAVEIAYPTPDVLKFTISKVFKNAIALASEIGYITPESAQAVISKAVAKAYALATAIGGKVDLGVQLPTVQQSQSQQPAAEEKKEEKKEEEKKGPSEEEIASGLASLFG”: “failed”. Then “MKRLEVSNQAKLPTQFGEFYIQCFREKGSNGSKDHLVVFTPNFSQNPLVRLHSECLTGDALGSQKCDCGGALQMALERISKEGGLVIYLRQEGRGIGLFNKVNAYALQDKGYDTIQANEMIGFKDDERDYSVAGEILEYYRIKKMRLLTNNPKKIAALEKYAEVTRESLIVCANEHNQGYLEVKKLKMGHLL”, with “failed”; and “MKRLLFTVISLLFSVSVLAAESSADRIDLTSSTVGYAAIVIFILAYILVMGEEKLHMRKSKPVLVAAGVIWILIGFVYTGDNAVLAEEAFRENLLKFAELMLFLLVAMTYINALEERRLFDALSAWLMKKGFTYRKLFWITGFLAFFISPIADNLTTALLMSAVVMKVAEGNKKFVALCCSSIVIAVNAAGAFSPFGDITTLMVWQSGKVEFTEFLQLFVPALVNYLIPAVIMSFFIENKSPTTLHTEVELKRGALRITFLFLLTVATAVACHIWLHLPPVLGMMMGLGYLQFFGYFLRMTLPGSLARKRAMAAREGDQKRLQQLGGVVPFDVFSRVSRAEWDTLLFFYGIVLCVGGLGFMGYLGLLSESLYGGLDPTIANSILGVVSALVDNIPVMFAVLSMDPEMSTGHWLLITLACCTGGSLLSIGSASGVALMGQARGYYTFMSHLKWTPVIAIGYAASILLHLWLNQATFLS”, with “failed”; and “MKRLMFIGPSQCGKTSLTQSLRGEALHYKKTQAIEWSPMAIDTPGEYLENRCLYSALLTSACEADVIALVLNADAQWSPFSPGFTVPMNRPTIGLVTKADLADPQRISLVAQWLTQAGARQIFITSALNNSGLDAVLDFLNSKEPLCLTKLEHHHHHH”, with “failed”. Then “MKRSDNVSWSQLKGGIFILVALAFFAGGVLLMGDKTKFFVPKGRLSVIMADVAGLKAGAPVWLAGVDVGVVTQIHFERPEATNEVEIVLEVDREALKKIGADSVVTVKTRGLMGEKYVDITPTREIVAKPVTRLQGTPMPKLDDVVQKAGRAFDRVDAIVAKTERGEGTLGRFASDPKLYDSLVRLTTELNAVAVSVNRGEGTLGMLNKSREPYEKLMSILNRADNTLTDIQSSEGTMSKLIHDRELYDKLVAVASKAGTAADEVRELNRRLLSKDGTLGKLVADREFYDRGLTLINRADTSLKSLEEVTARLQRGEGTAGKLLSDRELYDRLNRTVDDLDLLVKDIKENPKRYVKFSVFLEHHHHHH”, with “failed”. For “MKRWIAIILIALMPAAQAGKAAKVTLVVDDVPVVQVLQALAEQERQNLVVSPDVSGTLSLHLTDVPWKQALQTVVNSAGLVLRQEGNILHVHSQAWQKEHSARQDAERLRLQANLPLENRSISLQYVDTGELAKAGEKLLSAKGTIMVDKRTNRLLLRDNRAALAELEKWVSQMDLPVAQVELAAHIVTINEKSLRELGVKWTLADATQAGAVGDVTTLSSDLSVAAATSRVGFNIGRINGRLLDLELSALEQKQQLDIIASPRLLASHLQPASIKQGSEIPYQVSSGESGATSVEFKEAVLGMEVTPTVLQKGRIRLKLHISQNVPGQVLQQADGEVLAIDKQEIETQVEVKSGETLALGGIFSRKNKSGSDSVPLLGDIPWLGQLFRHDGKEDERRELVVFITPRLVATE”, the protein production result was “failed”.

As for “MKRWQMEWLLVSVALVWGANYTIGKYGVAFMSSIQFNSLRFLVASPVLLLITFLMERSLRIERKDWLRLVAVGIVGTTMYQTMFMLSVKYTSATNASLLIAMSPIFTGILAVLHKQERFSMKVQIGSIVAFIGAAFVLLTGHTGGATYEYAWLGNIIGLVAAIAWGWYPILAQPLITKYSAMRVTSWSTLIGIVPLVIYCLFNVNTLTWPVDTPSWGSLAYSIVFATIFGLAMWYVGISQIGSTKVMVYMYLVPLFAVIFAAVIIGEQINMMQLVGGLIIFIGLYVVKKGGMKKPALNLKKVS”, the protein production result is recorded as “failed”.

For “MKSACSIITASIVLYKSKPDIIRDVITSFFSDTVTKKKLILIDNSPTDSLRVLQEERPEDIQYFFNNRNIGFGSAHNIGIREAARFNPSYHLILNPDVQFGPEVVPTLASYMDENPDIGLLMPQVYYPNGELQHLCKLFPRPWDVMLRRFVPYRSYRERNNERFELRNWSYDTIQDIPSLSGCFMFARMDILREVGGFDERFFMYAEDLDLCRRIGQVSRTVFFPKVSIMHTYAKGSYHDAKLLRHHIVSLIRYFNKWGWLFDAERRRVNRACLAVLRNQTTVKKD”, the protein production entry is “failed”.

As to “MKSAPDWIAHPDTPYLLIDEAKLKSNINYLKQRVESLGSHLRPHLKTLRTLEAAGYLLDSKSAPATVSTLAEAEAYAKAGYTDLLYAVGIAPAKLKRVAALRQQGINLHILLDNITQAQAVVDYAAEFGQDFSVFIEIDSDDHRGGIKPSDSKLLTIAKTLGEHFTGLMTHAGGSYACNTEQGLKNFAKQECDAVRIARNNLETAGIHCAITSVGSTPTAHFGEDFSDISEVRAGVYTTFDLVMKNIGVCDFSHIAMSVVTTVIGHNKEKNWLLTDSGWMALSRDSGTAGQNRDFGYGQVCKIDGSVLDGLCVNSTSQEHGVIELSDAYQLEDFPVGHQLRIMPNHACATAAMHPVYHVLMSDGSHNTWQRITGW”, the protein production entry is “not failed”. Then “MKSEFYQGKIKQYDATKGFGFIGGLEQDVFFHISDFPLEEGEPKRNERVKFMVVENNGKFKAVKIQRVVDQSAKAKKSRAVENNTSITSALLSNFKK”, with “failed”.
